Measured values taken from patent publication US20120270234A1, “DDR2 PROTEIN WITH ACTIVATED KINASE ACTIVITY AND PREPARATION METHOD THEREOF” (KOREA INSTITUTE OF SCIENCE AND TECHNOLOGY, priority 2003, published 2012).
Entries after “also recorded” stand apart in the source; their conditions may differ.

Experiments:
[1] = target: T1, c-Src tyrosine kinase (Mus musculus, UniProt P05480, P80A); experiment: tyrosine phosphorylation on co-expression with c-Src in insect cells, western blotting with phosphorylated tyrosine specific antibody; assay type: cell-based, Spodoptera frugiperda; conditions: glutathione bead purified, FIG. 2, FIG. 4
T1 construct: Full length human c-Src gene was per amplified from the vector of pUSE human O-Src wild (Upstate Biotechnology); host or cells: sf9 insect cells co-infected with two recombinant baculoviruses
Excerpt: The results shown in FIG. 4 were obtained by co-expressing a fused protein GST-DDR2 CKD, a fused protein (GST-DDR1b CKD) of the GST and the human DDR1b cytosolic tyrosine kinase domain, a fused protein (GST-Akt1) of the GST and the full-length mouse Akt1 kinase and a fused protein (GST-CDK4) of the GST and the full-length human CDK4 kinase with the c-Src protein without GST tagging in insect cells, respectively; purifying the respective expressed product using glutathione beads; performing SDS-PAGE; and performing the western blotting test using a phosphorylated tyrosine specific antibody and coomassie staining.
The results shown in FIG. 4 have been obtained by co-expressing the full-length c-Src protein together with the fused proteins, GST-DDR2 CKD, GST-DDR1b CKD, GST-Akt1 and GST-CDK4, respectively; in sf9 cells, then performing a western blotting test on each purified GST tagged protein using a phosphorylated tyrosine specific antibody. The presence of a similar amount of each purified GST tagged protein was shown by CBB staining.
GST tagged kinase defective DDR2 cytosolic domain (GST-kd-DDR2-CKD) with intact three tyrosines in the activation loop or with various phenylalanine mutations described in the text were co-expressed with Src in sf9 cells. GST tagged proteins were purified and the same amount of proteins estimated by CBB staining was used for western blotting using P-tyro antibody.
(§1) Phospho-tyrosine specific antibody was purchased from Cell Signaling Inc, USA. Specific antibodies to human c-Src, human c-Fyn, and she were obtained from SantaCruz, USA. Samples were boiled for 2 min in 1× lameli sample buffer, and loaded in 10% SDS-PAGE. Proteins were transferred to Immobilon-P membrane (Millipore) and blacked by 10% skim milk in TBS for an hour. The membrane was immunoblotted with antibodies for 2 hours and subsequently washed with 1×TBS five times. Then it was incubated with HRP conjugated secondary antibodies for an hour and protein bands were detected using chemiluminescence kit (Amersham).

[2] = test system: sf9 cells; experiment: tyrosine phosphorylation by H2O2 processing of expressing insect cells, western blotting with phosphorylated tyrosine specific antibody; assay type: cell-based, Spodoptera frugoperda; conditions: 200 μM H2O2 for half of an hour; FIG. 2, FIG. 5
Experimental: The results shown in FIG. 5 were obtained by solely expressing the fused proteins, GST-DDR2 CKD, the GST-DDR1b CKD, the GST-CDK4 and the GST-CDK1, respectively, in insect cells; processing with 200 μM of H2O2 for half of an hour; purifying the respective expressed product using glutathione beads; performing the SDS-PAGE; and performing the western blotting test using an phosphorylated tyrosine specific antibody and coomassie staining.
The results shown in FIG. 5 have been obtained by solely expressing GST-DDR2 CKD, GST-DDR1b CKD, GST-CDK4 and GST-CDK1, respectively in sf9 cells; processing each expressed cells with H2O2 of 200 uM for half of an hour or not; and then purifying the GST tagged protein followed by a western blotting using a phosphorylated tyrosine specific antibody. The presence of a similar amount of each purified GST tagged protein was shown by CBB staining.
The recombinant baculoviruses having the GST-DDR2 CKD coding gene were transfected into sf9 insect cells, by setting MOU to 10 and the cells were cultured for 24 to 72 hours, to express the protein. […], at the concentration of 200 μM was added to the cultured cells. The cells were left for half of an hour, and collected. The collected cells were lysed and the GST-DDR2 CKD was purified from the expressed products, using the glutathione agarose bead column chromatography. The purified protein was subjected to an electrophoresis in 10% polyacrylamaid gel.
After completing the electrophoresis, the protein developed in the gel was transferred to nitrocellulose, and then subjected to a western blotting using a phosphorylated tyrosine specific antibody (Cell signaling Inc, USA), to measure the chemiluminescence signal using x-ray film. For the control, the chemical luminescence of the case without H2O2 processing was measured by the method as mentioned above.

[3] = test system: shc protein; experiment: in vitro shc binding assay using HSC T6 cell lysate; parameters: species or system human
Excerpt: One of the characteristic features of tyrosine phosphorylated cytosolic domain of receptor tyrosine kinase is to recruit the signaling proteins such as shc protein. This complex formation between the cytosolic domain of receptor tyrosine kinase protein and signaling proteins such as shc is important for the cellular transmission of the activated receptor tyrosine kinase signal. It has been observed in HSC T6 liver stellate cells and fibroblast cells that shc, one of signaling protein containing PTB domain binds to activated DDR2 cytosolic domain. The present inventors examined whether the invented DDR2 cytosolic tyrosine kinase domain protein with induced tyrosine phosphorylation for example, by the method of co-expression with c-Src in sf 9 cells or with the mutation of tyrosine 740 to phenylalanine 740 can be used for in vitro shc binding assay. In FIG. 15, the purified GST-DDR2 cytosolic domain from sf 9 cells with and without Src coinfection were used for in vitro shc binding assay. Each protein was subject to autophosphorylation reaction at 30° C. for 15 min, and a mock-autophosphylation reaction as well where gamma-S-ATP was used instead of ATP in the reaction buffer before they were used for in vitro shc binding assay using HSC T6 cell lysate.
The purified GST-DDR2 CKD proteins without or with tyrosine phosphorylation by Src were subject to in vitro shc binding assay after autophosphorylation reaction or a mock-autophosphorylation reaction as described in materials and methods. The bound proteins on the glutathione bead were eluted by boiling in 1× lameli buffer. The presence of shc in the eluate was measured by western blotting using shc antibody and the accumulation of tyrosine phosphorylation at GST-DDR2 CKD proteins resulted from autophosphorylation was shown by western blotting using P-tyro antibody. The presence of an equal amount of GST-DDR2 CKD proteins in each eluate was confirmed by CBB staining. ‘Bead only’ means that no GST-DDR2 CKD protein was applied on glutathione bead as a control.
The same type of experiment was done as FIG. 15 using purified GST-DDR2 CKD phosphorylated by src and its mutant proteins of Y740F and Y736/740/741F.
As a source of shc protein, total lysate of HSC T6 cells was used. For the preparation of the lysate, 2×10^7 HSC T6 cells were harvested and lysed by sonication in 5 ml of lysis buffer consisting of 20 mM Tris-HCl (pH8.0), 0.1M NaCl, 5 mM DTT, 10 mM NaF, […], 0.02% IGE-PAL (Sigma) and a proteinase inhibitor cocktail pellet (Roche). The supernatant was obtained by centrifugation in 15,000 rpm for 10 min at 4° C. and used for the following shc binding assay. Various GST-DDR2 KD proteins bound to glutathione bead were obtained as described above. […]

[4] = target: T2, c-Fyn tyrosine kinase (Homo sapiens, UniProt P06241); experiment: tyrosine phosphorylation on co-expression with c-Fyn in insect cells, western blotting with phosphorylated tyrosine specific antibody; assay type: cell-based; conditions: FIG. 2
T2 construct: Full length human c-Fyn gene was per amplified from the vector containing full length human c-Fyn purchased from Invitrogen, USA; host or cells: sf9 insect cells co-infected with two recombinant baculoviruses
T2 sequence (P06241 2-482 isoform P06241-3): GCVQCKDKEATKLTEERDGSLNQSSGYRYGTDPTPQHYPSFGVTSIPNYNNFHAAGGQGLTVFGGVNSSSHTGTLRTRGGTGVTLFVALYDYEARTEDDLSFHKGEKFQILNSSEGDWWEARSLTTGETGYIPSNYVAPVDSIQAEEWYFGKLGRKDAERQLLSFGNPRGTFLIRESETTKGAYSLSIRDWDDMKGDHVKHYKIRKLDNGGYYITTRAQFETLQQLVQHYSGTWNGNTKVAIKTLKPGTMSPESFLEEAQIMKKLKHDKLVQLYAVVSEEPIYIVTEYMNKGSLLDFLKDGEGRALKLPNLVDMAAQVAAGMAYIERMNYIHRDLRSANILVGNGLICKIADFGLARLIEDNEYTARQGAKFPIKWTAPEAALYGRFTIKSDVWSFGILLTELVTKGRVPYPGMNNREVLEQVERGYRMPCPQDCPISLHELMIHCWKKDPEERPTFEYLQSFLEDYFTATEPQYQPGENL
Excerpt: In order to check the expression of c-Src protein in the case of co-expressing the GST-DDR2 CKD and the c-Src (lane 2), a portion of lysate of the host cells is undergone a SDS-PAGE and then a western blotting using a c-Src protein specific antibody. Likewise in order to check the expression of c-Fyn protein in the case of co-expressing the GST-DDR2 CKD and the c-Fyn (lane 3), a portion of lysate of the host cells is undergone a SDS-PAGE and then a western blotting using a c-Fyn protein specific antibody.
The presence of equal amount of protein at each lane was estimated by coomassie brilliant blue (CBB) staining. The co-expression of c-Src or c-Fyn protein was confirmed by western blotting on aliquot of total cell lysate using human c-Src or c-Fyn specific antibody.
as §1

B1: GST-DDR2 CKD: fusion protein of glutathione S transferase and human DDR2 cytosolic tyrosine kinase domain, solely expressed in insect cells (protein)
chain: MTVSLSLPSDSSMFNNNRSSSPSEQGSNSTYDRIFPLRPDYQEPSRLIRKLPEFAPGEEESGCSGVVKPVQPSGPEGVPHYAEADIVNLQGVTGGNTYSVPAVTMDLLSGKDVAVEEFPRKLLTFKEKLGEGQFGEVHLCEVEGMEKFKDKDFALDVSANQPVLVAVKMLRADANKNARNDFLKEIKIMSRLKDPNIIHLLSVCITDDPLCMITEYMENGDLNQFLSRHEPPNSSSSDVRTVSYTNLKFMATQIASGMKYLSSLNFVHRDLATRNCLVGKNYTIKIADFGMSRNLYSGDYYRIQGRAVLPIRWMSWESILLGKFTTASDVWAFGVTLWETFTFCQEQPYSQLSDEQVIENTGEFFRDQGRQTYLPQPAICPDSVYKLMLSCWRRDTKNRPSFQEIHLLLLQQGDE
modifications: left off: a dimerising Fc or GST
notes: fusion protein of glutathione S transferase and human DDR2 cytosolic tyrosine kinase domain, solely expressed in insect cells
- tyrosine phosphorylation induced by co-expression with c-Src [1]: remarkably induced; also recorded: strongly induced
- tyrosine phosphorylation induced by H2O2 processing [2]: remarkably induced; also recorded: strongly induced
- shc binding after in vitro autophosphorylation reaction ([3]; autophosphorylation at 30° C. for 15 min, FIG. 15, FIG. 16): failure to show an improved shc binding
- shc binding before in vitro autophosphorylation ([3]; mock-autophosphorylation with gamma-S-ATP, FIG. 15): did not attract shc protein binding significantly
- tyrosine phosphorylation induced by co-expression with c-Fyn [4]: remarkably induced
